Measurements published in publication PMC4485890, “Structural Basis for the Specificity of Human NUDT16 and Its Regulation by Inosine Monophosphate” (PLoS ONE, 2015).
Changes are numbered by the printed parent chain. Numbers in names are those of the source.

B1: human NUDT16 A22V (construct used for crystallography) (enzyme, UniProt Q96DE0 1-195, looked up)
chain: MAGARRLELGEALALGSGWRHVCHALLYAPDPGMLFGRIPLRYAILMQMRFDGRLGFPGGFVDTQDRSLEDGLNRELREELGEAAAAFRVERTDYRSSHVGSGPRVVAHFYAKRLTLEELLAVEAGATRAKDHGLEVLGLVRVPLYTLRDGVGGLPTFLENSFIGSAREQLLEALQDLGLLQSGSISGLKIPAHH
notes: human NUDT16, full length, from MGC cDNA BC031215, which carries a mutation that replaces Ala22 by Val; A22V was already in the purchased cDNA and was not introduced by the authors; A TEV protease site follows the His6 tag; no cleavage is described for the crystallography sample; One monomer lies in the asymmetric unit and the dimer is formed by crystallographic symmetry; also called apo-NUDT16; …
B2: human NUDT16 wild-type (sample for analytical gel filtration) (enzyme, UniProt Q96DE0 1-195, looked up)
chain: B1 chain with V22A
notes: human NUDT16 wild-type (Ala22); expression and purification for gel filtration are described only in S1 Text

How the values were obtained:
[1] = biological target: the molecule itself; experiment: crystal structure; apo form (1.80 Å) and IMP/Mg2+-bound form (1.72 Å), space group F23; one monomer in the asymmetric unit, dimer with a symmetry-related molecule
[2] = biological target: the molecule itself; experiment: SEC; analytical gel filtration of NUDT16 wild-type against standard proteins; protocol in S1 Text

Row | Protein | binding result [1] | stoichiometry N [2]
1 | B1 | binds | 
2 | B2 |  | 2
